Laboratory results reported in patent US20030049732.

Biological target: T1, Nod1
T1 chain: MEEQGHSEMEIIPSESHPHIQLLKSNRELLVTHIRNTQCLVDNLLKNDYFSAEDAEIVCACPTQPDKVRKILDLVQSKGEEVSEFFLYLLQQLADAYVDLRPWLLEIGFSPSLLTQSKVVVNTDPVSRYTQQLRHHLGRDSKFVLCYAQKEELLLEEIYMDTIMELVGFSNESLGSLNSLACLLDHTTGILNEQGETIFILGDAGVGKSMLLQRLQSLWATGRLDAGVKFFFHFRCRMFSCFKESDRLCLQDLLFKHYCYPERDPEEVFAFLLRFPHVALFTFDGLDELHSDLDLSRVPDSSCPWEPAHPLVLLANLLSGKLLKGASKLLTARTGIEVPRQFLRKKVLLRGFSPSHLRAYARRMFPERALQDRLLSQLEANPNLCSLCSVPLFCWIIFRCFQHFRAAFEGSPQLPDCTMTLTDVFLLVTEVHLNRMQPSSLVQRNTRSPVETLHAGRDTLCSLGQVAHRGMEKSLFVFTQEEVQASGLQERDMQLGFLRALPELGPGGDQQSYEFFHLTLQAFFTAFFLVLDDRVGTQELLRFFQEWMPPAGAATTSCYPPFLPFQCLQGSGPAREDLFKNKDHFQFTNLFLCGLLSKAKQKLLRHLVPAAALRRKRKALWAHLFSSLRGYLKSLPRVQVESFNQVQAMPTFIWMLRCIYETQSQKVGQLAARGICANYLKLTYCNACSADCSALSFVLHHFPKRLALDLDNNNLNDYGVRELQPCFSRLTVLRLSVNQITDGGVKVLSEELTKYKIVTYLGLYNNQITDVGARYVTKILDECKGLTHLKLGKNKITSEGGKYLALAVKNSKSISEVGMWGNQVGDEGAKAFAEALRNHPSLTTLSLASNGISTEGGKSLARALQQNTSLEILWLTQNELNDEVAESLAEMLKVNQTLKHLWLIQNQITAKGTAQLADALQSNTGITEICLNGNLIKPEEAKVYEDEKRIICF

B1: Caspase-9 (protein)
chain: MDEADRRLLRRCRLRLVEELQVDQLWDALLSRELFRPHMIEDIQRAGSGSRRDQARQLIIDLETRGSQALPLFISCLEDTGQDMLASFLRTNRQAAKLSKPTLENLTPVVLRPEIRKPEVLRPETPRPVDIGSGGFGDVGALESLRGNADLAYILSMEPCGHCLIINNVNFCRESGLRTRTGSNIDCEKLRRRFSSLHFMVEVKGDLTAKKMVLALLELAQQDHGALDCCVVVILSHGCQASHLQFPGAVYGTDGCPVSVEKIVNIFNGTSCPSLGGKPKLFFIQACGGEQKDHGFEVASTSPEDESPGSNPEPDATPFQEGLRTFDQLDAISSLPTPSDIFVSYSTFPGFVSWRDPKSGSWYVETLDDIFEQWAHSEDLQSLLLRVANAVSVKGIYKQMPGCFNFLRKKLFFKTS
- proteolytic processing of procaspase-9 (SDS-PAGE, anti-Flag immunoblot of 293T lysates): Expression of Nod1 includes the proteolytic activation of procaspase-9, but not that of procaspase-8

B2: Caspase-8 (protein)
chain: MDFSRNLYDIGEQLDSEDLASLKFLSLDYIPQRKQEPIKDALMLFQRLQEKRMLEESNLSFLKELLFRINRLDLLITYLNTRKEEMERELQTPGRAQISAYRVMLYQISEEVSRSELRSFKFLLQEEISKCKLDDDMNLLDIFIEMEKRVILGEGKLDILKRVCAQINKSLLKIINDYEEFSKERSSSLEGSPDEFSNGEELCGVMTISDSPREQDSESQTLDKVYQMKSKPRGYCLIINNHNFAKAREKVPKLHSIRDRNGTHLDAGALTTTFEELHFEIKPHDDCTVEQIYEILKIYQLMDHSNMDCFICCILSHGDKGIIYGTDGQEAPIYELTSQFTGLKCPSLAGKPKVFFIQACQGDNYQKGIPVETDSEEQPYLEMDLSSPQTRYIPDEADFLLGMATVNNCVSYRNPAEGTWYIQSLCQSLRERCPRGDDILTILTEVNYEVSNKDDKKNMGKQMPQPTFTLRKKLVFPSD
- proteolytic processing of procaspase-8 (SDS-PAGE, anti-HA immunoblot of 293T lysates): Expression of Nod1 includes the proteolytic activation of procaspase-9, but not that of procaspase-8
